{"source": "patent US20090042805A1", "about": "(CHIESI FARMACEUTICI S P A, published 2009)", "binders": {"B1": {"name": "VDEGD pentapeptidic-based inhibitor (peptide)", "peptide": "Ac-VDEGD-aldehyde"}, "B2": {"name": "Ac-VDESD-cho (peptide)", "peptide": "Ac-VDESD-aldehyde", "SMILES": "CC(=O)N[C@H](C(=O)N[C@@H](CC(=O)O)C(=O)N[C@@H](CCC(=O)O)C(=O)N[C@@H](CO)C(=O)N[C@H](C=O)CC(=O)O)C(C)C"}, "B3": {"name": "Ac-LDEKD-cho (peptide)", "peptide": "Ac-LDEKD-aldehyde", "SMILES": "CC(=O)N[C@@H](CC(C)C)C(=O)N[C@@H](CC(=O)O)C(=O)N[C@@H](CCC(=O)O)C(=O)N[C@@H](CCCCN)C(=O)N[C@H](C=O)CC(=O)O"}, "B4": {"name": "Ac-VDEAD-cho (peptide)", "peptide": "Ac-VDEAD-aldehyde", "SMILES": "CC(=O)N[C@H](C(=O)N[C@@H](CC(=O)O)C(=O)N[C@@H](CCC(=O)O)C(=O)N[C@@H](C)C(=O)N[C@H](C=O)CC(=O)O)C(C)C"}, "B5": {"name": "Ac-LDEAD-cho (peptide)", "peptide": "Ac-LDEAD-aldehyde", "SMILES": "CC(=O)N[C@@H](CC(C)C)C(=O)N[C@@H](CC(=O)O)C(=O)N[C@@H](CCC(=O)O)C(=O)N[C@@H](C)C(=O)N[C@H](C=O)CC(=O)O"}, "B6": {"name": "Ac-LDESD-cho (peptide)", "peptide": "Ac-LDESD-aldehyde", "SMILES": "CC(=O)N[C@@H](CC(C)C)C(=O)N[C@@H](CC(=O)O)C(=O)N[C@@H](CCC(=O)O)C(=O)N[C@@H](CO)C(=O)N[C@H](C=O)CC(=O)O"}, "B7": {"name": "Ac-FDESD-cho (peptide)", "peptide": "Ac-FDESD-aldehyde", "SMILES": "CC(=O)N[C@@H](Cc1ccccc1)C(=O)N[C@@H](CC(=O)O)C(=O)N[C@@H](CCC(=O)O)C(=O)N[C@@H](CO)C(=O)N[C@H](C=O)CC(=O)O"}, "B8": {"name": "Ac-LDEGD-cho (peptide)", "peptide": "Ac-LDEGD-aldehyde", "SMILES": "CC(=O)N[C@@H](CC(C)C)C(=O)N[C@@H](CC(=O)O)C(=O)N[C@@H](CCC(=O)O)C(=O)NCC(=O)N[C@H](C=O)CC(=O)O"}, "B9": {"name": "Qco-VDVAD-CH2O(2,6-difluorophenyl) (peptide)", "peptide": "Quinaldoyl-VDVAD-{CH2O(2,6-difluorophenyl)}"}, "B10": {"name": "Ac-VDVAD-cho (peptide)", "peptide": "Ac-VDVAD-aldehyde"}}, "experiment_in_all_cases": "cell-based or functional assay", "key": {"[1]": {"target": "T1, Human recombinant caspase-2 (human, UniProt P42575 170-452, limits assumed)", "T1 sequence (looked up)": "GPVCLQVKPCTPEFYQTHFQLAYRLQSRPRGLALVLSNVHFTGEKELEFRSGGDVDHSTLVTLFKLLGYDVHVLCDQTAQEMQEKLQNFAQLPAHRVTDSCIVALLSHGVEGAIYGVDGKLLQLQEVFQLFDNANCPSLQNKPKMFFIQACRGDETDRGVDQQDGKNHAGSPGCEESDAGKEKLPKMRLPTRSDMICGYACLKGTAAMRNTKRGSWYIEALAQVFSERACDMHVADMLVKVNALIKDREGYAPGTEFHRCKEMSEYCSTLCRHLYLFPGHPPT"}, "[2]": {"target": "T2, Human recombinant caspase-6 (human, UniProt P55212 24-293, limits assumed)", "T2 sequence (looked up)": "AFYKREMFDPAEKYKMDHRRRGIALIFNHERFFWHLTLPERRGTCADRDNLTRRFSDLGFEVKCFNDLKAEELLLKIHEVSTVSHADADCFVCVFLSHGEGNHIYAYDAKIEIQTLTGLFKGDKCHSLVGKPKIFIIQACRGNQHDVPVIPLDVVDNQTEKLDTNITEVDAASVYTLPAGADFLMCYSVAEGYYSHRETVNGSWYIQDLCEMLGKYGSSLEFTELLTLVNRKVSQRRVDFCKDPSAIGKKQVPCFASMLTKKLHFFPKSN"}, "[3]": {"target": "T1, Human recombinant caspase-2", "remark": "listed apart in the source"}}, "note": "* marks the point of attachment. Quinaldoyl = O=C(c1ccc2ccccc2n1)*"}
{"binder": "B1", "values": [{"measurement": "IC50 (nM), inhibition of Ac-VDVAD-AMC cleavage by human recombinant caspase-2", "setting": "[1]", "value": 260, "unit": "nM"}]}
{"binder": "B2", "values": [{"measurement": "IC50 (nM), inhibition of Ac-VDVAD-AMC cleavage by human recombinant caspase-2", "setting": "[1]", "value": 175, "unit": "nM"}]}
{"binder": "B3", "values": [{"measurement": "IC50 (nM), inhibition of Ac-VDVAD-AMC cleavage by human recombinant caspase-2", "setting": "[1]", "value": 300, "unit": "nM"}]}
{"binder": "B4", "values": [{"measurement": "IC50 (nM), inhibition of Ac-VDVAD-AMC cleavage by human recombinant caspase-2", "setting": "[1]", "value": 85, "unit": "nM"}]}
{"binder": "B5", "values": [{"measurement": "IC50, inhibition of Ac-VEID-AMC cleavage by human recombinant caspase-6", "setting": "[2]", "value": "~2000", "unit": "nM"}, {"measurement": "IC50 (nM), inhibition of Ac-VDVAD-AMC cleavage by human recombinant caspase-2", "setting": "[1]", "value": 85, "unit": "nM"}]}
{"binder": "B6", "values": [{"measurement": "IC50 (nM), inhibition of Ac-VDVAD-AMC cleavage by human recombinant caspase-2", "setting": "[1]", "value": 300, "unit": "nM"}]}
{"binder": "B7", "values": [{"measurement": "IC50 (nM), inhibition of Ac-VDVAD-AMC cleavage by human recombinant caspase-2", "setting": "[1]", "value": 800, "unit": "nM"}]}
{"binder": "B8", "values": [{"measurement": "IC50 (nM), inhibition of Ac-VDVAD-AMC cleavage by human recombinant caspase-2", "setting": "[1]", "value": 430, "unit": "nM"}]}
{"binder": "B9", "values": [{"measurement": "IC50, inhibition of caspase-2", "setting": "[3]", "value": 80, "unit": "nM"}]}
{"binder": "B10", "values": [{"measurement": "IC50 (nM), inhibition of Ac-VDVAD-AMC cleavage by human recombinant caspase-2", "setting": "[1]", "value": 75, "unit": "nM"}]}
